This passage reports stoichiometry N results from publication PMC11638070.

The term stoichiometry N denotes the number of molecules, sites or subunits per partner or assembly.

This assay deals with mitochondrial heat shock protein 60, wild type (mtHsp60) (human), P10809. The experiment in a line: SEC; analytical SEC of each protein alone (mtHsp60 samples 17 µM monomer); Superdex 200 Increase 3.2/300, room temperature, 20 mM HEPES pH 7.5, 100 mM KCl, 10 mM MgCl2. The conditions noted are these: remark: other sources report otherwise. Background: In gel filtration, larger molecules generally elute earlier.

B1: mitochondrial heat shock protein 60, wild type (mtHsp60), P10809 27-573 (natural protein)
chain: AKDVKFGADARALMLQGVDLLADAVAVTMGPKGRTVIIEQSWGSPKVTKDGVTVAKSIDLKDKYKNIGAKLVQDVANNTNEEAGDGTTTATVLARSIAKEGFEKISKGANPVEIRRGVMLAVDAVIAELKKQSKPVTTPEEIAQVATISANGDKEIGNIISDAMKKVGRKGVITVKDGKTLNDELEIIEGMKFDRGYISPYFINTSKGQKCEFQDAYVLLSEKKISSIQSIVPALEIANAHRKPLVIIAEDVDGEALSTLVLNRLKVGLQVVAVKAPGFGDNRKNQLKDMAIATGGAVFGEEGLTLNLEDVQPHDLGKVGEVIVTKDDAMLLKGKGDKAQIEKRIQEIIEQLDVTTSEYEKEKLNERLAKLSDGVAVLKVGGTSDVEVNEKKDRVTDALNATRAAVEEGIVLGGGCALLRCIPALDSLTPANEDQKIGIEIIKRTLKIPAMTIAKNAGVEGSLIVEKIMQSSSEVGYDAMAGDFVNMVEKGIIDPTKVVRTALLDAAGVASLLTTAEVVVTEIPKEEKDPGMGAMGGMGGGMGGGMF
For the molecule B1, the stoichiometry N was 7.
